Tested on: KDM4A-I71AzF
Assay: CASI: photo-crosslinking with HEK293T cell extracts, StrepTactin enrichment and LC-MS/MS proteomics;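 also: lysates from HEK293T cells pretreated with a KDM4 inhibitor to raise proteome methylation, affinity-purified after ±UV, gel-resolved, trypsin-digested, with exclusive unique peptides per protein averaged per condition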
Assay type: binding, human
Details: sheet "Final results but with 0.01"

Molecule | Fold change (+UV/-UV)
MCM6_HUMAN (protein, UniProt Q14566 1-821, looked up) DNA replication licensing …: MDLAAAAEPGAGSQHLEVRDEVAEKCQKLFLDFLEEFQSSDGEIKYLQLAEELIRPERNTLVVSFVDLEQFNQQLSTTIQEEFYRVYPYLCRALKTFVKDRKEIPLAKDFYVAFQDLPTRHKIRELTSSRIGLLTRISGQVVRTHPVHPELVSGTFLCLDCQTVIRDVEQQFKYTQPNICRNPVCANRRRFLLDTNKSRFVDFQKVRIQETQAELPRGSIPRSLEVILRAEAVESAQAGDKCDFTGTLIVVPDVSKLSTPGARAETNSRVSGVDGYETEGIRGLRALGVRDLSYRLVFLACCVAPTNPRFGGKELRDEEQTAESIKNQMTVKEWEKVFEMSQDKNLYHNLCTSLFPTIHGNDEVKRGVLLMLFGGVPKTTGEGTSLRGDINVCIVGDPSTAKSQFLKHVEEFSPRAVYTSGKASSAAGLTAAVVRDEESHEFVIEAGALMLADNGVCCIDEFDKMDVRDQVAIHEAMEQQTISITKAGVKATLNARTSILAAANPISGHYDRSKSLKQNINLSAPIMSRFDLFFILVDECNEVTDYAIARRIVDLHSRIEESIDRVYSLDDIRRYLLFARQFKPKISKESEDFIVEQYKHLRQRDGSGVTKSSWRITVRQLESMIRLSEAMARMHCCDEVQPKHVKEAFRLLNKSIIRVETPDVNLDQEEEIQMEVDEGAGGINGHADSPAPVNGINGYNEDINQESAPKASLRLGFSEYCRISNLIVLHLRKVEEEEDESALKRSELVNWYLKEIESEIDSEEELINKKRIIEKVIHRLTHYDHVLIELTQAGLKGSTEGSESYEEDPYLVVNPNYLLED | 0.75
NOLC1_HUMAN (protein, UniProt Q14978 1-699, looked up) Nucleolar and coiled-body …: MADAGIRRVVPSDLYPLVLGFLRDNQLSEVANKFAKATGATQQDANASSLLDIYSFWLKSAKVPERKLQANGPVAKKAKKKASSSDSEDSSEEEEEVQGPPAKKAAVPAKRVGLPPGKAAAKASESSSSEESSDDDDEEDQKKQPVQKGVKPQAKAAKAPPKKAKSSDSDSDSSSEDEPPKNQKPKITPVTVKAQTKAPPKPARAAPKIANGKAASSSSSSSSSSSSDDSEEEKAAATPKKTVPKKQVVAKAPVKAATTPTRKSSSSEDSSSDEEEEQKKPMKNKPGPYSSVPPPSAPPPKKSLGTQPPKKAVEKQQPVESSEDSSDESDSSSEEEKKPPTKAVVSKATTKPPPAKKAAESSSDSSDSDSSEDDEAPSKPAGTTKNSSNKPAVTTKSPAVKPAAAPKQPVGGGQKLLTRKADSSSSEEESSSSEEEKTKKMVATTKPKATAKAALSLPAKQAPQGSRDSSSDSDSSSSEEEEEKTSKSAVKKKPQKVAGGAAPSKPASAKKGKAESSNSSSSDDSSEEEEEKLKGKGSPRPQAPKANGTSALTAQNGKAAKNSEEEEEEKKKAAVVVSKSGSLKKRKQNEAAKEAETPQAKKIKLQTPNTFPKRKKGEKRASSPFRRVREEEIEVDSRVADNSFDAKRGAAGDWGERANQVLKFTKGKSFRHEKTKKKRGSYRGGSISVQVNSIKFDSE | 1
DHX15_HUMAN (protein, UniProt O43143 1-795, looked up) ATP-dependent RNA helicase …: MSKRHRLDLGEDYPSGKKRAGTDGKDRDRDRDREDRSKDRDRERDRGDREREREKEKEKELRASTNAMLISAGLPPLKASHSAHSTHSAHSTHSTHSAHSTHAGHAGHTSLPQCINPFTNLPHTPRYYDILKKRLQLPVWEYKDRFTDILVRHQSFVLVGETGSGKTTQIPQWCVEYMRSLPGPKRGVACTQPRRVAAMSVAQRVADEMDVMLGQEVGYSIRFEDCSSAKTILKYMTDGMLLREAMNDPLLERYGVIILDEAHERTLATDILMGVLKEVVRQRSDLKVIVMSATLDAGKFQIYFDNCPLLTIPGRTHPVEIFYTPEPERDYLEAAIRTVIQIHMCEEEEGDLLLFLTGQEEIDEACKRIKREVDDLGPEVGDIKIIPLYSTLPPQQQQRIFEPPPPKKQNGAIGRKVVVSTNIAETSLTIDGVVFVIDPGFAKQKVYNPRIRVESLLVTAISKASAQQRAGRAGRTRPGKCFRLYTEKAYKTEMQDNTYPEILRSNLGSVVLQLKKLGIDDLVHFDFMDPPAPETLMRALELLNYLAALNDDGDLTELGSMMAEFPLDPQLAKMVIASCDYNCSNEVLSITAMLSVPQCFVRPTEAKKAADEAKMRFAHIDGDHLTLLNVYHAFKQNHESVQWCYDNFINYRSLMSADNVRQQLSRIMDRFNLPRRSTDFTSRDYYINIRKALVTGYFMQVAHLERTGHYLTVKDNQVVQLHPSTVLDHKPEWVLYNEFVLTTKNYIRTCTDIKPEWLVKIAPQYYDMSNFPQCEAKRQLDRIIAKLQSKEYSQY | 1.071
CAPR1_HUMAN (protein, UniProt Q14444 2-709, looked up) Caprin-1: PSATSHSGSGSKSSGPPPPSGSSGSEAAAGAGAAAPASQHPATGTGAVQTEAMKQILGVIDKKLRNLEKKKGKLDDYQERMNKGERLNQDQLDAVSKYQEVTNNLEFAKELQRSFMALSQDIQKTIKKTARREQLMREEAEQKRLKTVLELQYVLDKLGDDEVRTDLKQGLNGVPILSEEELSLLDEFYKLVDPERDMSLRLNEQYEHASIHLWDLLEGKEKPVCGTTYKVLKEIVERVFQSNYFDSTHNHQNGLCEEEEAASAPAVEDQVPEAEPEPAEEYTEQSEVESTEYVNRQFMAETQFTSGEKEQVDEWTVETVEVVNSLQQQPQAASPSVPEPHSLTPVAQADPLVRRQRVQDLMAQMQGPYNFIQDSMLDFENQTLDPAIVSAQPMNPTQNMDMPQLVCPPVHSESRLAQPNQVPVQPEATQVPLVSSTSEGYTASQPLYQPSHATEQRPQKEPIDQIQATISLNTDQTTASSSLPAASQPQVFQAGTSKPLHSSGINVNAAPFQSMQTVFNMNAPVPPVNEPETLKQQNQYQASYNQSFSSQPHQVEQTELQQEQLQTVVGTYHGSPDQSHQVTGNHQQPPQQNTGFPRSNQPYYNSRGVSRGGSRGARGLMNGYRGPANGFRGGYDGYRPSFSNTPNSGYTQSQFSAPRDYSGYQRDGYQQNFKRGSGQSGPRGAPRGRGGPPRPNRGMPQMNTQQVN | 0.5
MCM5_HUMAN (protein, UniProt P33992 2-734, looked up) DNA replication licensing …: SGFDDPGIFYSDSFGGDAQADEGQARKSQLQRRFKEFLRQYRVGTDRTGFTFKYRDELKRHYNLGEYWIEVEMEDLASFDEDLADYLYKQPAEHLQLLEEAAKEVADEVTRPRPSGEEVLQDIQVMLKSDASPSSIRSLKSDMMSHLVKIPGIIIAASAVRAKATRISIQCRSCRNTLTNIAMRPGLEGYALPRKCNTDQAGRPKCPLDPYFIMPDKCKCVDFQTLKLQELPDAVPHGEMPRHMQLYCDRYLCDKVVPGNRVTIMGIYSIKKFGLTTSRGRDRVGVGIRSSYIRVLGIQVDTDGSGRSFAGAVSPQEEEEFRRLAALPNVYEVISKSIAPSIFGGTDMKKAIACLLFGGSRKRLPDGLTRRGDINLLMLGDPGTAKSQLLKFVEKCSPIGVYTSGKGSSAAGLTASVMRDPSSRNFIMEGGAMVLADGGVVCIDEFDKMREDDRVAIHEAMEQQTISIAKAGITTTLNSRCSVLAAANSVFGRWDETKGEDNIDFMPTILSRFDMIFIVKDEHNEERDVMLAKHVITLHVSALTQTQAVEGEIDLAKLKKFIAYCRVKCGPRLSAEAAEKLKNRYIIMRSGARQHERDSDRRSSIPITVRQLEAIVRIAEALSKMKLQPFATEADVEEALRLFQVSTLDAALSGTLSGVEGFTSQEDQEMLSRIEKQLKRRFAIGSQVSEHSIIKDFTKQKYPEHAIHKVLQLMLRRGEIQHRMQRKVLYRLK | 0.9167
